The target of the experiment is recombinant SSA (streptococcal superantigen SSA of S. pyogenes HKU16, without the predicted signal peptide) (S. pyogenes HKU16).

The term stoichiometry N denotes a count of units in the complex or per binding partner. On to “recombinant SSA (streptococcal superantigen SSA of S. pyogenes HKU16, without the predicted signal peptide) (natural protein)”, for which the stoichiometry N is 2.

The record behind these values is PMC7538557.
